From FireProtDB (doi:10.1021/bi050142b)

Conditions: Kitasatospora aureofaciens, 30 °C, GdnHCl, reversible: yes (>98%), whole UniProt chain shown

B1: Guanyl-specific ribonuclease Sa wild type, P05798 (protein)
chain: DVSGTVCLSALPPEATDTLNLIASDGPFPYSQDGVVFQNRESVLPTQSYGYYHEYTVITPGARTRGTRRIITGEATQEDYYTGDHYATFSLIDQTC
In the case of B1, the denaturant m value (pH 5.5, CD, None) is reported as 2.32 kcal/mol/M, the unfolding free energy (pH 5.5, CD, None) is reported as 7.5 kcal/mol and the unfolding free energy (pH 5.5, NMR hydrogen exchange) is reported as 2.82 kcal/mol. It also gave a denaturant m value (pH 5.9, CD, None) of 2.3 kcal/mol/M and an unfolding free energy (pH 5.9, CD, None) of 6.7 kcal/mol.
